US20230374153A1 (PARADIGM IMMUNOTERAPEUTICS, published 2023)

What was measured:
[1] = biological target: T1, FcRn (neonatal Fc receptor) (UniProt P55899 24-297; P61769 21-119); test: SPR (Biacore, ACRO Biosystems), pH 6.0
T1 construct: also called FCGRT; purified FcRn receptor

[2] = biological target: T1, FcRn (neonatal Fc receptor)

T1 sequence (P55899 24-297 limits assumed, chain 1 of 2): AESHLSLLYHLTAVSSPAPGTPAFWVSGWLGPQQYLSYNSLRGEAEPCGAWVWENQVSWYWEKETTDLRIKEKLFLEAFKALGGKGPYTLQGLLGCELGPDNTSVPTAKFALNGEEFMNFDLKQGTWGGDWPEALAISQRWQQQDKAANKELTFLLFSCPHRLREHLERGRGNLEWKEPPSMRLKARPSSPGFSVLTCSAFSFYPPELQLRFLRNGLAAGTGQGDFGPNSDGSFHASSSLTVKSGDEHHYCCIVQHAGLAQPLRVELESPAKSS
T1 sequence (P61769 21-119 limits assumed, chain 2 of 2): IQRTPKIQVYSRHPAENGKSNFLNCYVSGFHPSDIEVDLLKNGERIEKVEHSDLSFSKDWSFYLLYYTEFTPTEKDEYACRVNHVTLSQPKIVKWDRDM

B1: ACE2 LVE IgG Fc STR chimeric antibody (LiVE) (Fc fusion)
chain: QSTIEEQAKLFLDKFNVEAEDLFYQSSLASWNYNTNITEENVQNMNNAGDKWSAFLKEQSTLAQMYPLQEIQELTVKLQLQALQQNGSSVLSEDKSKRLNTILNTMSTIYSTGKVCNPDNPQECLLLEPGLNEIMANSLDYNERLWAWESWRSEVGKQLRPLYEEYVVLKNEMARANHYEDYGDYWRGDYEVNGVDGYDYSRGQLIEDVEHTFEEIKPLYEHLHAYVRAKLMNAYPSYISPIGCLPAHLLGDMWGRFWTNLYSLTVPFGQKPNIDVTDAMVDQAWDAQRIFKEAEKFFVSVGLPNMTQGFWENSMLTDPGNVQKAVCHPTAWDLGKGDFRILMCTKVTMDDFLTAHHEMGHIQYDMAYAAQPFLLRNGANEGFHEAVGEIMSLSAATPKHLKSIGLLSPDFQEDNETEINFLLKQALTIVGTLPFTYMLEKWRWMVFKGEIPKDQWMKKWWEMKREIVGVVEPVPHDETYCDPASLFHVSNDYSFIRYYTRTLYQFQFQEALCQAAKHEGPLHKCDISNSTEAGQKLFNMLRLGKSEPWTLALENVVGAKNMNVRPLLNYFEPLFTWLKDQNKNSFVGWSTDWSPYADQSIKVRISLKSALGDKAYEWNDNEMYLFRSSVAYAMRQYFLKVKNQMILFGEEDVRVANLKPRISFNFFVTAPKNVSDIIPRTEVEKAIRMSRSRINDAFRLNDNSLEFLGIQPTLGPPNQPPVSGGGGSGGGGSDKTHTCPPCPAPESTRGPSVFLFPPKPKDTLMISRTPEVTCVVVDVSHEDPEVKFNWYVDGVEVHNAKTKPREEQYNSTYRVVSVLTVLHQDWLNGKEYKCKVSNKALPAPIEKTISKAKGQPREPQVYTLPPSRDELTKNQVSLTCLVKGFYPSDIAVEWESNGQPENNYKTTPPVLDSDGSFFLYSKLTVDKSRWQQGNVFSCSVMHEALHNHYTQKSLSLSPGK
In the case of B1, the Kd [1] is reported as 517 nM.

B2: ACE2 LVE IgG Fc STR YTE chimeric antibody (LiVE Longer) (Fc fusion)
chain: QSTIEEQAKLFLDKFNVEAEDLFYQSSLASWNYNTNITEENVQNMNNAGDKWSAFLKEQSTLAQMYPLQEIQELTVKLQLQALQQNGSSVLSEDKSKRLNTILNTMSTIYSTGKVCNPDNPQECLLLEPGLNEIMANSLDYNERLWAWESWRSEVGKQLRPLYEEYVVLKNEMARANHYEDYGDYWRGDYEVNGVDGYDYSRGQLIEDVEHTFEEIKPLYEHLHAYVRAKLMNAYPSYISPIGCLPAHLLGDMWGRFWTNLYSLTVPFGQKPNIDVTDAMVDQAWDAQRIFKEAEKFFVSVGLPNMTQGFWENSMLTDPGNVQKAVCHPTAWDLGKGDFRILMCTKVTMDDFLTAHHEMGHIQYDMAYAAQPFLLRNGANEGFHEAVGEIMSLSAATPKHLKSIGLLSPDFQEDNETEINFLLKQALTIVGTLPFTYMLEKWRWMVFKGEIPKDQWMKKWWEMKREIVGVVEPVPHDETYCDPASLFHVSNDYSFIRYYTRTLYQFQFQEALCQAAKHEGPLHKCDISNSTEAGQKLFNMLRLGKSEPWTLALENVVGAKNMNVRPLLNYFEPLFTWLKDQNKNSFVGWSTDWSPYADQSIKVRISLKSALGDKAYEWNDNEMYLFRSSVAYAMRQYFLKVKNQMILFGEEDVRVANLKPRISFNFFVTAPKNVSDIIPRTEVEKAIRMSRSRINDAFRLNDNSLEFLGIQPTLGPPNQPPVSGGGGSGGGGSDKTHTCPPCPAPESTRGPSVFLFPPKPKDTLYITREPEVTCVVVDVSHEDPEVKFNWYVDGVEVHNAKTKPREEQYNSTYRVVSVLTVLHQDWLNGKEYKCKVSNKALPAPIEKTISKAKGQPREPQVYTLPPSRDELTKNQVSLTCLVKGFYPSDIAVEWESNGQPENNYKTTPPVLDSDGSFFLYSKLTVDKSRWQQGNVFSCSVMHEALHNHYTQKSLSLSPGK
B2 showed a Kd [1] of 26.7 nM, a koff [2] of 0.00412 s⁻¹ and a kon [2] of 155000 M⁻¹ s⁻¹.
